Measured values: US10213494B2, “Treatment of synucleinopathies” (The Brigham and Women's Hospital, Inc., priority 2007, dated 2019)
Square brackets hold non-standard residues; d marks the D form. Peptide text beside a SMILES is read from it. * marks the point of attachment. Sta = CC(C)C[C@H](N)[C@@H](O)CC(=O)O; Isovaleryl = CC(C)CC(=O)*

test system: α-synuclein protein (wild-type, human) in MES23.5 cells; assay: Sandwich ELISA of intracellular α-synuclein in MES23.5 cells co-transfected with wild-type human SNCA cDNA and lysosomal enzyme cDNA; type: cell-based; details: GBA variant plasmid 5 μg per 10 cm dish + 0.5 μg SNCA cDNA, 24 hours after transfection, no prosaposin; mean+/−sem
Experimental: Sera from six rabbits were raised and affinity-purified at Open Biosystems, Inc. (openbiosystems.com) against recombinant, full-length human αS. Recombinant αS had been HPLC- and MS-characterized and subjected to amino acid composition and protein concentration analyses. For ELISA, 384-well MaxiSorp plates (Nunc, Inc) were coated with 50 μl/well capturing polyclonal Ab (hSA-2) diluted in coating buffer (NaHCO3 with 0.2% NaN3, pH 9.6). Following washes with PBS/0.05% Tween-20 (PBS-T), plates were blocked for 2 hours at 37° C. in blocking buffer (1.125% fish skin gelatin; PBS-T). After 4 washes, samples were loaded and incubated at 4° C. for 12 hours. Biotinylated Syn-1 mAb (as the assaying Ab) was generated using 200 μg Sulfo-NHS-LC Biotin (Pierce), diluted in blocking buffer and added to the plate for 2 hours at 37° C. Following 4 washes, ExtrAvidin phosphatase (Sigma) diluted in blocking buffer was applied for 1 hr at 37° C. Color development was carried out by using Fast-p-Nitrophenyl Phosphate (Sigma) and monitored kinetically at OD 405 nm every 5 minutes for up to 60 minutes.
To optimize a ‘DNA: LIPOFECTAMINE® 2000’ ratio with low cell toxicity, MES23.5 cells were transfected with either 0.25, 0.5 or 1 μg αS-encoding, wild-type, human SNCA cDNA plus empty vector cDNA up to a total of 5.5 μg DNA per 10 cm dish. 24 hours after transfection, cell lysates were harvested as described above. For serial dilutions of cell lysates, blocking buffer containing 0.5% lysate from vector-transfected wells was used as diluent, which was also used to create the blank and the corresponding standard curve of recombinant human αS. Saturation kinetics were examined for identification of time point(s) where standards and sample dilutions were in the log phase.
MES cells were transfected with 0.5 μg per 10 cm dish of αS-encoding SNCA cDNA-carrying plasmid, plus 5 μg per 10 cm dish of wild-type or mutant, human GBA-encoding plasmid. The GBA variants used were wild type, N370S, D409H, L444P, E235A, and E340A. These 5 GBA mutants were created by site-directed mutagenesis, using the Quickchange® kit (Stratagene), and sequence-verified. The N370S, D409H and L444P are known to occur (in the homozygous or compound heterozygous state) in Gaucher disease in the heterozygous state in Parkinson Disease patients and/or patients with dementia with Lewy bodies. The E235A and E340A mutant GBA proteins are not known to occur in people.
24 hours after transfection, MES cells were lysed as described above and all lysates were analyzed by ELISA. […] This is in contrast to the result observed in Example 5 above. The observed discrepancy can reflect the differences in total DNA transfected in the two paradigms (FIG. 2B; FIG. 2C versus FIG. 4), thereby leading to changes in the DNA:LIPOFECTAMINE® 2000 ratio, and in the role of co-expressed prosaposin (saposin C). It is therefore conceivable that wild-type GBA can have variable effects on αS levels in these MES23.5 cells, depending on the rate of αS import into lysosomes and the composition as well as activation state of more than one lysosomal enzyme.
MES23.5 cells were transfected with 0.5 μg per 10 cm dish of an αS-encoding, wild-type, human SNCA cDNA-carrying plasmid (referred to as MES-hSNCA WT cells in the Western blot shown in FIG. 6), plus either 1.25, 2.5 or 5 μg per 10 cm dish of a human Cathepsin D-encoding CTSD cDNA plasmid, which was purchased from OriGene Technologies, Inc., and was under the control of a CMV promoter. The Cathepsin D clone was fully sequence-verified after isolation and maxiprep. Each transfection arm was balanced with empty vector DNA up to a total of 5.5 μg DNA per 10 cm dish. 24 hours after transfection, cells were lysed, and the resulting lysates were analyzed by the sandwich ELISA described herein. […]

Molecule	intracellular α-synuclein level, % of vector cDNA control levels
N370S: human GBA mutant N370S, created by site-directed mutagenesis, disease-related (protein, UniProt P04062 40-536, looked up, variant N370S) Lysosomal acid …: ARPCIPKSFGYSSVVCVCNATYCDSFDPPTFPALGTFSRYESTRSGRRMELSMGPIQANHTGTGLLLTLQPEQKFQKVKGFGGAMTDAAALNILALSPPAQNLLLKSYFSEEGIGYNIIRVPMASCDFSIRTYTYADTPDDFQLHNFSLPEEDTKLKIPLIHRALQLAQRPVSLLASPWTSPTWLKTNGAVNGKGSLKGQPGDIYHQTWARYFVKFLDAYAEHKLQFWAVTAENEPSAGLLSGYPFQCLGFTPEHQRDFIARDLGPTLANSTHHNVRLLMLDDQRLLLPHWAKVVLTDPEAAKYVHGIAVHWYLDFLAPAKATLGETHRLFPNTMLFASEACVGSKFWEQSVRLGSWDRGMQYSHSIITSLLYHVVGWTDWNLALNPEGGPNWVRNFVDSPIIVDITKDTFYKQPMFYHLGHFSKFIPEGSQRVGLVASQKNDLDAVALMHPDGSAVVVVLNRSSKDVPLTIKDPAVGFLETISPGYSIHTYLWRRQ	121.1+/−4.98%
D409H: human GBA mutant D409H, created by site-directed mutagenesis, disease-related (protein, UniProt P04062 40-536, looked up, variant D409H) Lysosomal acid …: ARPCIPKSFGYSSVVCVCNATYCDSFDPPTFPALGTFSRYESTRSGRRMELSMGPIQANHTGTGLLLTLQPEQKFQKVKGFGGAMTDAAALNILALSPPAQNLLLKSYFSEEGIGYNIIRVPMASCDFSIRTYTYADTPDDFQLHNFSLPEEDTKLKIPLIHRALQLAQRPVSLLASPWTSPTWLKTNGAVNGKGSLKGQPGDIYHQTWARYFVKFLDAYAEHKLQFWAVTAENEPSAGLLSGYPFQCLGFTPEHQRDFIARDLGPTLANSTHHNVRLLMLDDQRLLLPHWAKVVLTDPEAAKYVHGIAVHWYLDFLAPAKATLGETHRLFPNTMLFASEACVGSKFWEQSVRLGSWDRGMQYSHSIITNLLYHVVGWTDWNLALNPEGGPNWVRNFVDSPIIVDITKHTFYKQPMFYHLGHFSKFIPEGSQRVGLVASQKNDLDAVALMHPDGSAVVVVLNRSSKDVPLTIKDPAVGFLETISPGYSIHTYLWRRQ	269.4+/−56.6%
E340A: human GBA mutant directed at the nucleophile, catalytically inactive (protein, UniProt P04062 40-536, looked up, variant E340A) Lysosomal acid …: ARPCIPKSFGYSSVVCVCNATYCDSFDPPTFPALGTFSRYESTRSGRRMELSMGPIQANHTGTGLLLTLQPEQKFQKVKGFGGAMTDAAALNILALSPPAQNLLLKSYFSEEGIGYNIIRVPMASCDFSIRTYTYADTPDDFQLHNFSLPEEDTKLKIPLIHRALQLAQRPVSLLASPWTSPTWLKTNGAVNGKGSLKGQPGDIYHQTWARYFVKFLDAYAEHKLQFWAVTAENEPSAGLLSGYPFQCLGFTPEHQRDFIARDLGPTLANSTHHNVRLLMLDDQRLLLPHWAKVVLTDPEAAKYVHGIAVHWYLDFLAPAKATLGETHRLFPNTMLFASAACVGSKFWEQSVRLGSWDRGMQYSHSIITNLLYHVVGWTDWNLALNPEGGPNWVRNFVDSPIIVDITKDTFYKQPMFYHLGHFSKFIPEGSQRVGLVASQKNDLDAVALMHPDGSAVVVVLNRSSKDVPLTIKDPAVGFLETISPGYSIHTYLWRRQ	156.4+/−19.65%
E235A: human GBA mutant directed at the acid/base catalyst, catalytically inactive (protein, UniProt P04062 40-536, looked up, variant E235A) Lysosomal acid …: ARPCIPKSFGYSSVVCVCNATYCDSFDPPTFPALGTFSRYESTRSGRRMELSMGPIQANHTGTGLLLTLQPEQKFQKVKGFGGAMTDAAALNILALSPPAQNLLLKSYFSEEGIGYNIIRVPMASCDFSIRTYTYADTPDDFQLHNFSLPEEDTKLKIPLIHRALQLAQRPVSLLASPWTSPTWLKTNGAVNGKGSLKGQPGDIYHQTWARYFVKFLDAYAEHKLQFWAVTAENAPSAGLLSGYPFQCLGFTPEHQRDFIARDLGPTLANSTHHNVRLLMLDDQRLLLPHWAKVVLTDPEAAKYVHGIAVHWYLDFLAPAKATLGETHRLFPNTMLFASEACVGSKFWEQSVRLGSWDRGMQYSHSIITNLLYHVVGWTDWNLALNPEGGPNWVRNFVDSPIIVDITKDTFYKQPMFYHLGHFSKFIPEGSQRVGLVASQKNDLDAVALMHPDGSAVVVVLNRSSKDVPLTIKDPAVGFLETISPGYSIHTYLWRRQ	231.0+/−37.14%
L444P: human GBA mutant L444P, created by site-directed mutagenesis, disease-related (protein, UniProt P04062 40-536, looked up, variant L444P) Lysosomal acid …: ARPCIPKSFGYSSVVCVCNATYCDSFDPPTFPALGTFSRYESTRSGRRMELSMGPIQANHTGTGLLLTLQPEQKFQKVKGFGGAMTDAAALNILALSPPAQNLLLKSYFSEEGIGYNIIRVPMASCDFSIRTYTYADTPDDFQLHNFSLPEEDTKLKIPLIHRALQLAQRPVSLLASPWTSPTWLKTNGAVNGKGSLKGQPGDIYHQTWARYFVKFLDAYAEHKLQFWAVTAENEPSAGLLSGYPFQCLGFTPEHQRDFIARDLGPTLANSTHHNVRLLMLDDQRLLLPHWAKVVLTDPEAAKYVHGIAVHWYLDFLAPAKATLGETHRLFPNTMLFASEACVGSKFWEQSVRLGSWDRGMQYSHSIITNLLYHVVGWTDWNLALNPEGGPNWVRNFVDSPIIVDITKDTFYKQPMFYHLGHFSKFIPEGSQRVGLVASQKNDPDAVALMHPDGSAVVVVLNRSSKDVPLTIKDPAVGFLETISPGYSIHTYLWRRQ	172.7+/−23.02%

same assay, conditions: pepstatin A included in the cell lysis buffer

Molecule	amount of αS detected in the lysate
CC(C)CC(=O)N[C@H](C(=O)N[C@H](C(=O)N[C@@H](CC(C)C)[C@@H](O)CC(=O)N[C@@H](C)C(=O)N[C@@H](CC(C)C)[C@@H](O)CC(=O)O)C(C)C)C(C)C [pepstatin A, reference compound] (Isovaleryl-VV[Sta]A[Sta]-OH)	did not change the amount of αS detected in the lysate
